According to US11833164B2, “Methods of treating Fabry disease in patients having a mutation in the GLA gene” (Amicus Therapeutics, Inc., priority 2019, dated 2023):
Numbering of substitutions follows the chain as printed. Numbers in names are those of the source.

B1: F149C (protein)
chain: MQLRNPELHLGCALALRFLALVSWDIPGARALDNGLARTPTMGWLHWERFMCNLDCQEEPDSCISEKLFMEMAELMVSEGWKDAGYEYLCIDDCWMAPQRDSEGRLQADPQRFPHGIRQLANYVHSKGLKLGIYADVGNKTCAGFPGSCGYYDIDAQTFADWGVDLLKFDGCYCDSLENLADGYKHMSLALNRTGRSIVYSCEWPLYMWPFQKPNYTEIRQYCNHWRNFADIDDSWKSIKSILDWTSFNQERIVDVAGPGGWNDPDMLVIGNFGLSWNQQVTQMALWAIMAAPLFMSNDLRHISPQAKALLQDKDVIAINQDPLGKQGYQLRQGDNFEVWERPLSGLAWAVAMINRQEIGGPRSYTIAVASLGKGVACNPACFITQLLPVKRKLGFYEWTSRLRSHINPTGTVLLQLENTMQMSLKDLL
B2: Y151C (protein)
chain: B1 chain with C149F, Y151C
B3: Y151D (protein)
chain: B1 chain with C149F, Y151D
B4: Y151S (protein)
chain: B1 chain with C149F, Y151S
B5: A156G (protein)
chain: B1 chain with C149F, A156G
B6: G150V (protein)
chain: B1 chain with C149F, G150V
B7: D153A (protein)
chain: B1 chain with C149F, D153A
B8: G150E (protein)
chain: B1 chain with C149F, G150E
B9: D153N (protein)
chain: B1 chain with C149F, D153N
B10: D153H (protein)
chain: B1 chain with C149F, D153H
B11: Q157P (protein)
chain: B1 chain with C149F, Q157P
B12: Y152F (protein)
chain: B1 chain with C149F, Y152F
B13: Q157L (protein)
chain: B1 chain with C149F, Q157L
B14: Y152S (protein)
chain: B1 chain with C149F, Y152S
B15: D153V (protein)
chain: B1 chain with C149F, D153V
B16: Q157K (protein)
chain: B1 chain with C149F, Q157K
B17: Q157E (protein)
chain: B1 chain with C149F, Q157E
B18: D153Y (protein)
chain: B1 chain with C149F, D153Y

System: mutant form of α-Gal A expressed in HEK-293 cells
Assay: HEK assay (GLP HEK / Migalastat Amenability Assay): α-Gal A activity in lysates of transiently transfected HEK-293 cells incubated with or without 10 μM migalastat
Assay type: cell-based, human
Conditions: for Absolute increase (% WT): 10 μM migalastat versus baseline; for Relative increase: 10 μM migalastat α-Gal A activity relative to baseline; for 10 μM migalastat α-Gal A activity (% WT): 5 days; for 10 μM migalastat α-Gal A activity (% WT) / Baseline α-Gal A activity (% WT): percentage of baseline wild-type α-Gal A activity; for 10 μM migalastat α-Gal A activity (% WT) / Baseline α-Gal A activity (% WT) / Baseline α-Gal A activity / 10 μM migalastat α-Gal A activity: mean ± SEM; for Baseline α-Gal A activity (% WT): absence of migalastat; for Baseline α-Gal A activity / 10 μM migalastat α-Gal A activity: lysates of HEK-293 cells transfected with the mutant form; for Baseline α-Gal A activity: incubated 5 days in the absence of migalastat; for 10 μM migalastat α-Gal A activity: incubated 5 days with 10 μM migalastat
Summary of the method: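 Activity reported as 4-MU released (nmol/mg/hr), mean±SEM, from lysates of transiently transfected HEK-293 cells expressing mutant α-Gal A, cultured with or without 10 μM migalastat.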

Row | Molecule | Absolute increase (% WT) | Relative increase | 10 μM migalastat α-Gal A activity (% WT) | Baseline α-Gal A activity (% WT) | Baseline α-Gal A activity [nmol/mg/h] | 10 μM migalastat α-Gal A activity [nmol/mg/h]
1 | B1 | 13.9 | 1.3 | 60.9 ± 6.4 | 47 ± 4.4 | 15198 ± 1188 | 19032 ± 1272
2 | B2 | 13.2 | 1.4 | 45.6 ± 2 | 32.4 ± 1.5 | 11271 ± 579 | 15859 ± 752
3 | B3 | 11.5 | 1.4 | 40.8 ± 2.2 | 29.3 ± 1.7 | 10673 ± 604 | 15196 ± 1025
4 | B4 | 22.2 | 1.3 | 107 ± 4.9 | 84.8 ± 4.2 | 30047 ± 1943 | 37527 ± 2003
5 | B5 | 16.9 | 1.4 | 63.6 ± 4.3 | 46.7 ± 2.7 | 17406 ± 1187 | 23415 ± 1710
6 | B6 | 9.2 | 4.3 | 12.1 ± 0.7 | 2.9 ± 0.1 | 1080 ± 63 | 4639 ± 361
7 | B7 | 21.6 | 1.4 | 81.6 ± 2.3 | 60.1 ± 2.4 | 22606 ± 1445 | 30854 ± 1997
8 | B8 | 12.3 | 1.2 | 73.8 ± 7 | 61.5 ± 6.6 | 18804 ± 1070 | 22710 ± 1059
9 | B9 | 24.1 | 1.3 | 89.7 ± 4.4 | 65.6 ± 2.8 | 29386 ± 1518 | 39338 ± 1551
10 | B10 | 20.5 | 1.3 | 81 ± 2.1 | 60.5 ± 2.2 | 23578 ± 1741 | 31052 ± 1774
11 | B11 | 40.6 | 5.4 | 49.6 ± 3.4 | 9 ± 1 | 3887 ± 487 | 20888 ± 1527
12 | B12 | 11.4 | 1.3 | 56.8 ± 2.7 | 45.4 ± 2.6 | 18675 ± 907 | 23612 ± 1095
13 | B13 | 60.2 | 5.1 | 74.4 ± 4.3 | 14.3 ± 1.5 | 5734 ± 700 | 28942 ± 2013
14 | B14 | 19.6 | 1.7 | 46.7 ± 2.6 | 27.1 ± 1.7 | 9917 ± 917 | 16642 ± 1218
15 | B15 | 25.0 | 2.2 | 42.4 ± 1.6 | 17.4 ± 2 | 7357 ± 1139 | 16301 ± 766
16 | B16 | 55.6 | 3.2 | 79.7 ± 5 | 24.1 ± 1.8 | 9815 ± 1083 | 31331 ± 2428
17 | B17 | 24.1 | 1.3 | 101.5 ± 6.1 | 77.4 ± 4.1 | 28269 ± 1306 | 37204 ± 2126
18 | B18 | 23.3 | 1.8 | 52.4 ± 2.8 | 29.1 ± 3.1 | 12609 ± 1299 | 22535 ± 1174
